Positions count from the first letter of the chain named. Blank lines part the entries; values can stand above or below the molecule they belong to.
Tests used:
[1] = biological target: macaque CD45RC (cynomolgus macaque); assay: flow cytometry, cynomolgus macaque PBMC, CD3+ cells (p-1488)
[2] = biological target: macaque CD45RC (cynomolgus macaque); assay: flow cytometry, cynomolgus macaque PBMC, CD3- cells
human CD45RC [3] = biological target: T1, human CD45RC (human, UniProt P08575 26-1306); assay: flow cytometry, human whole blood; mDC [3]
T1 construct: In flow cytometry the protein is on human PBMC (which may also carry other CD45 isoforms with the C determinant); in the SPR assay it is in solubilised membranes of CD45RC-high PBMC or of CHO cells transfected with CD45RC; also called hCD45RC
T1 sequence: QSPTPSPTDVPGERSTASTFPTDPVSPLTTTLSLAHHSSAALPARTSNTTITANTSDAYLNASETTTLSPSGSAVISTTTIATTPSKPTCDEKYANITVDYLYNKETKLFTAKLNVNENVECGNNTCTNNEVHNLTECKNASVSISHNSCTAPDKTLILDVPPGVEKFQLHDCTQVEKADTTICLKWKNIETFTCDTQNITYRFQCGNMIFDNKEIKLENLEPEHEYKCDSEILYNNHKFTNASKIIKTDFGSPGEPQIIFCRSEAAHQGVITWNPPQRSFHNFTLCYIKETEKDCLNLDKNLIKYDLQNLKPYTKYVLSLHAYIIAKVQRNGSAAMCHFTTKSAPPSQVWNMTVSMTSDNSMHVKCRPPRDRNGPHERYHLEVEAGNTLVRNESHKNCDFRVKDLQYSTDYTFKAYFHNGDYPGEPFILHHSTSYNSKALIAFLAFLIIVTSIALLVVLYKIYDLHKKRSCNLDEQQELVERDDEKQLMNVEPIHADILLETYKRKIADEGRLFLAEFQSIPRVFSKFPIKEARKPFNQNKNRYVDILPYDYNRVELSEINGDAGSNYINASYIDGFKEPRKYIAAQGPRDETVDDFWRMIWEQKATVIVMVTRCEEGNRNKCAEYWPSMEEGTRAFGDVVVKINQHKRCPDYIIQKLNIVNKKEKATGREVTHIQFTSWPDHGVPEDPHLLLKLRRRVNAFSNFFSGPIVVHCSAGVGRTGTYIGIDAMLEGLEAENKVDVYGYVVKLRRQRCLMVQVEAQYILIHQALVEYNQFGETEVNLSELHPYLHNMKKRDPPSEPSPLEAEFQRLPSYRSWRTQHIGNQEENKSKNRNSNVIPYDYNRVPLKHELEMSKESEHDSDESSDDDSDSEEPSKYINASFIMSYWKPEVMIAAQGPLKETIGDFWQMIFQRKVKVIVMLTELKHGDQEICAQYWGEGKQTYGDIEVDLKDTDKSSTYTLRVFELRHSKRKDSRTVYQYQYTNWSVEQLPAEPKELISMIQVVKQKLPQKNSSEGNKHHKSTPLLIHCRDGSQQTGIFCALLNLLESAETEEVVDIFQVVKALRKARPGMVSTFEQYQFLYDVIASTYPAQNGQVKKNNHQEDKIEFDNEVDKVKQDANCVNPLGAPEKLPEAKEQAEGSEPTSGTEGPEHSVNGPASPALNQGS

human CD45RC [4] = biological target: T1, human CD45RC; assay: flow cytometry, human whole blood; NK [1]
human CD45RC [5] = biological target: T1, human CD45RC; assay: flow cytometry, human whole blood; T cells [1]
human CD45RC [6] = biological target: T1, human CD45RC; assay: flow cytometry, human whole blood; CD3+ TCRgd [1]
human CD45RC [7] = biological target: T1, human CD45RC; assay: flow cytometry, human whole blood; CD8+ T [1]
human CD45RC [8] = biological target: T1, human CD45RC; assay: flow cytometry, human whole blood; pDC [3]
human CD45RC [9] = biological target: T1, human CD45RC; assay: flow cytometry, human whole blood; iNKT [2]
human CD45RC [10] = biological target: T1, human CD45RC; assay: flow cytometry, human whole blood; ILC2 [2]
human CD45RC [11] = biological target: T1, human CD45RC; assay: flow cytometry, human whole blood; CD3+ TCRab [1]
human CD45RC [12] = biological target: T1, human CD45RC; assay: flow cytometry, human whole blood; Basophils [3]
human CD45RC [13] = biological target: T1, human CD45RC; assay: flow cytometry, human whole blood; Monocytes CD14intCD16+ [3]
human CD45RC [14] = biological target: T1, human CD45RC; assay: flow cytometry, human whole blood; NKT [2]
human CD45RC [15] = biological target: T1, human CD45RC; assay: flow cytometry, human whole blood; CD4+ Treg (CD25+CD127-) [1]
human CD45RC [16] = biological target: T1, human CD45RC; assay: flow cytometry, human whole blood; ILC1 [2]
human CD45RC [17] = biological target: T1, human CD45RC; assay: flow cytometry, human whole blood; Monocytes CD14highCD16- [2]
human CD45RC [18] = biological target: T1, human CD45RC; assay: flow cytometry, human whole blood; ILC3 [2]
human CD45RC [19] = biological target: T1, human CD45RC; assay: flow cytometry, human whole blood; Eosinophils [3]
human CD45RC [20] = biological target: T1, human CD45RC; assay: flow cytometry, human whole blood; Monocytes CD14+ [2]
human CD45RC [21] = biological target: T1, human CD45RC; assay: flow cytometry, human whole blood; Neutrophils [3]
human CD45RC [22] = biological target: T1, human CD45RC; assay: flow cytometry, human whole blood; CD4+ T [1]
human CD45RC [23] = biological target: T1, human CD45RC; assay: flow cytometry, human whole blood; B cells [1]
human CD45RC [24] = biological target: T1, human CD45RC; assay: flow cytometry, human whole blood; MAIT [2]
[25] = biological target: macaque CD45RC (cynomolgus macaque); assay: flow cytometry, cynomolgus macaque PBMC, CD3- cells; 10 µg/ml (p-1486)
[26] = biological target: macaque CD45RC (cynomolgus macaque); assay: flow cytometry, cynomolgus macaque PBMC, CD3+ cells (p-1488); 10 µg/ml (p-1486)
human CD45RC [27] = biological target: T1, human CD45RC; assay: SPR (BIAcore 3000 / T200), ABIS-45RC immobilised on CM5 chip, solubilised membranes of CD45RC-high PBMC or CD45RC-transfected CHO cells as analyte, 25 C, single cycle kinetics
From the text: Briefly, 1×10⁷ CD45RC^high PBMCs or CHO cells expressing CD45RC after plasmid transfection were solubilized using the Mem-PER membrane isolation kit (Thermo-fisher).

B1: Anti-45RC Variant A (antibody, human IgG1, kappa, V domains shown)
VH: QVQLVQSGAEVKKPGASVKVSCKASGYTFTNYYIGWVRQAPGQGLEWIGDIFPGGDYANSNEKFKGRVTLTADTSISTAYMELSRLRSDDTVVYYCVRRNFDYWGQGTLVTVSS
VL: DIQLTQSPSFLSASVGDRVTITCSASSSVSYMHWFQQKPGKAPKLWIYNTSNLPSGVPSRFSGSGSGTEYTLTISSLQPEDFATYYCQQRSSYPLTFGGGTKVEIKR
% of cells CD45RC+ [25]: 75.6% | % of cells CD45RC+ [26]: 17.2%

B2: Anti-45RC Variant A3 (antibody, human IgG1, kappa, V domains shown)
VH: B1 VH with D56G, A58T, S60Y, N61A, K65Q
VL: B1 VL with S24R, F35Y
% of cells CD45RC+ [25]: 82.6% | % of cells CD45RC+ [26]: 15.2%

B3: Anti-45RC Variant A1 (antibody, human IgG1, kappa, V domains shown)
VH: B1 VH with A58T, S60Y, N61A, K65Q
VL: B1 VL with S24R, F35Y
% of cells CD45RC+ [25]: 76.3% | % of cells CD45RC+ [26]: 15.6%

B4: ABIS-45RC (antibody, mouse IgG1, kappa, V domains shown)
VH: QVQLQQSGAELVRPGTSVKMSCKAAGYTFTNYYIGWVKQRPGHGLEWIGDIFPGGDYANSNEKFKGKATLTADTSSSTAYMQLSSLTSEDSAIYYCVRRNFDYWGQGTTLTVSS
VL: QIVLTQSPTIMSASPGEKVTITCSASSSVSYMHWFQQKTGTSPRLWIYNTSNLPSGVPARFSGSGSGTSYSLTISRMEAEDAATYYCQQRSSYPLTFGAGTKLELKR
notes: the variable domains are the same; also called murine ABIS-45RC; murine anti-hCD45RC antibody of the invention
% of cells CD45RC+ [25]: 74.1% | % of cells CD45RC+ [26]: 26.1% | Kd (human CD45RC [27]): 50 nM | koff (human CD45RC [27]): 0.0144 s⁻¹ | kon (human CD45RC [27]): 291000 M⁻¹ s⁻¹

Further lines, results first:

% of cells CD45RC+ [1]: 4.37% | % of cells CD45RC+ [2]: 2.7%
Molecule: Isotype (antibody)

% of cells CD45RC high (human CD45RC [3]): 0% | % of cells CD45RC low (human CD45RC [3]): 14.3% | % of cells CD45RC negative (human CD45RC [3]): 85.7% | % of cells CD45RC high (human CD45RC [4]): 28.6% | % of cells CD45RC low (human CD45RC [4]): 70.4% | % of cells CD45RC negative (human CD45RC [4]): 1% | % of cells CD45RC high (human CD45RC [5]): 7.43% | % of cells CD45RC low (human CD45RC [5]): 49.7% | % of cells CD45RC negative (human CD45RC [5]): 42.9% | % of cells CD45RC high (human CD45RC [6]): 1.93% | % of cells CD45RC low (human CD45RC [6]): 90.6% | % of cells CD45RC negative (human CD45RC [6]): 7.46% | % of cells CD45RC high (human CD45RC [7]): 38.8% | % of cells CD45RC low (human CD45RC [7]): 39.7% | % of cells CD45RC negative (human CD45RC [7]): 21.5% | % of cells CD45RC high (human CD45RC [8]): 1.84% | % of cells CD45RC low (human CD45RC [8]): 97.9% | % of cells CD45RC negative (human CD45RC [8]): 0.23% | % of cells CD45RC high (human CD45RC [9]): 24.1% | % of cells CD45RC low (human CD45RC [9]): 61.6% | % of cells CD45RC negative (human CD45RC [9]): 14.3% | % of cells CD45RC high (human CD45RC [10]): 45% | % of cells CD45RC low (human CD45RC [10]): 49.5% | % of cells CD45RC negative (human CD45RC [10]): 5.5% | % of cells CD45RC high (human CD45RC [11]): 8.34% | % of cells CD45RC low (human CD45RC [11]): 46.2% | % of cells CD45RC negative (human CD45RC [11]): 45.5% | % of cells CD45RC high (human CD45RC [12]): 0% | % of cells CD45RC low (human CD45RC [12]): 7.3% | % of cells CD45RC negative (human CD45RC [12]): 92.7% | % of cells CD45RC high (human CD45RC [13]): 6.45% | % of cells CD45RC low (human CD45RC [13]): 87.7% | % of cells CD45RC negative (human CD45RC [13]): 5.87% | % of cells CD45RC high (human CD45RC [14]): 34.4% | % of cells CD45RC low (human CD45RC [14]): 54.2% | % of cells CD45RC negative (human CD45RC [14]): 11.4% | % of cells CD45RC high (human CD45RC [15]): 3.52% | % of cells CD45RC low (human CD45RC [15]): 19.8% | % of cells CD45RC negative (human CD45RC [15]): 76.7% | % of cells CD45RC high (human CD45RC [16]): 9.3% | % of cells CD45RC low (human CD45RC [16]): 27.5% | % of cells CD45RC negative (human CD45RC [16]): 63.2% | % of cells CD45RC high (human CD45RC [17]): 0.091% | % of cells CD45RC low (human CD45RC [17]): 38.3% | % of cells CD45RC negative (human CD45RC [17]): 61.6% | % of cells CD45RC high (human CD45RC [18]): 50% | % of cells CD45RC low (human CD45RC [18]): 50% | % of cells CD45RC negative (human CD45RC [18]): 0% | % of cells CD45RC high (human CD45RC [19]): 0.47% | % of cells CD45RC low (human CD45RC [19]): 90.5% | % of cells CD45RC negative (human CD45RC [19]): 9.08% | % of cells CD45RC high (human CD45RC [20]): 0.43% | % of cells CD45RC low (human CD45RC [20]): 43.9% | % of cells CD45RC negative (human CD45RC [20]): 55.6% | % of cells CD45RC high (human CD45RC [21]): 0.014% | % of cells CD45RC low (human CD45RC [21]): 19.3% | % of cells CD45RC negative (human CD45RC [21]): 80.7% | % of cells CD45RC high (human CD45RC [22]): 3.64% | % of cells CD45RC low (human CD45RC [22]): 47.2% | % of cells CD45RC negative (human CD45RC [22]): 49.2% | % of cells CD45RC high (human CD45RC [23]): 79.9% | % of cells CD45RC low (human CD45RC [23]): 20.1% | % of cells CD45RC negative (human CD45RC [23]): 0% | % of cells CD45RC high (human CD45RC [24]): 5.89% | % of cells CD45RC low (human CD45RC [24]): 71% | % of cells CD45RC negative (human CD45RC [24]): 23.2%
Molecule: MT2 (antibody)

Reference: US20250122300A1 (INSERM INSTITUT NATIONAL DE LA SANT ET DE LA RECHERCHE M …, published 2025)
